This note sets out measurements from patent US20090053242A1 (Amgen, published 2009).

Sequences and labels used below:
T1: human c-Mpl receptor (TPO receptor), full-length, transfected into IL-3 dependent murine 32D cells (human, UniProt P40238 26-635)
T1 sequence (looked up): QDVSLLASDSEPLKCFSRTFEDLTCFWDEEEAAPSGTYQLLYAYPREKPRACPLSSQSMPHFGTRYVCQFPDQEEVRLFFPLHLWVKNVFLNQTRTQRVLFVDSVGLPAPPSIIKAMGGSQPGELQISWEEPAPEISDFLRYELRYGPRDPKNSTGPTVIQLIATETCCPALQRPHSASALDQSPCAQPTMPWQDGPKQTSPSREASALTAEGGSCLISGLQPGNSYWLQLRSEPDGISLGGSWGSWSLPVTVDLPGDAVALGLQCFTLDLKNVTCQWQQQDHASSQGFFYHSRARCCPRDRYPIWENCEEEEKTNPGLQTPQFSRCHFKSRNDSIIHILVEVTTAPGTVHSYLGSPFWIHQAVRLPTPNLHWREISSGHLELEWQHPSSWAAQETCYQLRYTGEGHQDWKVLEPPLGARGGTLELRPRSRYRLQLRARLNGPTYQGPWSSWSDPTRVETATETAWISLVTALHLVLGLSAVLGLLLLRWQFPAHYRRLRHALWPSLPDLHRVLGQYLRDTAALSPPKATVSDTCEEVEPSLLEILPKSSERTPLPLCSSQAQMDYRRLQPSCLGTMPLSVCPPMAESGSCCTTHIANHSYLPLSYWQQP

The first assay deals with human c-Mpl receptor (TPO receptor), full-length, transfected into IL-3 dependent murine 32D cells (human) (UniProt P40238). As to the kind of experiment: cell-based or functional assay.
“TMP tandem dimer with linker of 14 glycine residues (peptide)”: the potency in TPO-dependent cell-proliferation assay, against the monomer is > 1000 fold.

“TMP tandem dimer with linker of 10 glycine residues (peptide)”: the potency in TPO-dependent cell-proliferation assay, against the monomer was > 1000 fold.

On to “TMP tandem dimer with linker of 9 glycine residues (peptide)”, for which the potency in TPO-dependent cell-proliferation assay, against the monomer was > 1000 fold.

In another assay the target is T1, human c-Mpl receptor (TPO receptor), …. Kind of assay: cell-based or functional assay.
As to IEGPTLRQWLAARAGIEGPTLRQWLAARA [TMP tandem dimer with linker of 1 glycine residue], the “potency in TPO-dependent cell-proliferation assay, against the monomer” value was > 1000 fold.

For IEGPTLRQWLAARAGGGGGGGGIEGPTLRQWLAARA [TMP tandem dimer with linker of 8 glycine residues], the “potency in TPO-dependent cell-proliferation assay, against the monomer” value is > 1000 fold.

Take IEGPTLRQWLAARAIEGPTLRQWLAARA [TMP tandem dimer without linker (0 glycine residues)]: the “potency in TPO-dependent cell-proliferation assay, against the monomer” value is > 1000 fold.

In the case of IEGPTLRQWLAARAGGGGGGIEGPTLRQWLAARA [TMP tandem dimer with linker of 6 glycine residues], the “potency in TPO-dependent cell-proliferation assay, against the monomer” value is > 1000 fold.

In the case of IEGPTLRQWLAARAGGIEGPTLRQWLAARA [TMP tandem dimer with linker of 2 glycine residues], the “potency in TPO-dependent cell-proliferation assay, against the monomer” value is > 1000 fold.

With IEGPTLRQWLAARAGGGGGIEGPTLRQWLAARA [TMP tandem dimer with linker of 5 glycine residues], the “potency in TPO-dependent cell-proliferation assay, against the monomer” value was > 1000 fold.

Take IEGPTLRQWLAARAGPNGIEGPTLRQWLAARA [peptide 13, TMP tandem dimer with GPNG linker]: the “activity in cell-proliferation assay, against the GGGG-linked analog” value was > 10 fold less active and the “potency in cell-proliferation assay, against the monomer” value is ~100 fold.

Regarding IEGPTLRQWLAARAGGGGIEGPTLRQWLAARA [TMP tandem dimer with linker of 4 glycine residues], the “potency in TPO-dependent cell-proliferation assay, against the monomer” value was > 1000 fold.

For the molecule IEGPTLRQWLAARAGGGIEGPTLRQWLAARA [TMP tandem dimer with linker of 3 glycine residues], the “potency in TPO-dependent cell-proliferation assay, against the monomer” value is > 1000 fold.

Consider IEGPTLRQWLAARAGGGGGGGIEGPTLRQWLAARA [TMP tandem dimer with linker of 7 glycine residues], for which the “potency in TPO-dependent cell-proliferation assay, against the monomer” value is > 1000 fold.
